Values quoted from earlier work, collected in article PMC3283658.

Molecular target: IL-15Rβγ (Homo sapiens) (UniProt P14784)
Chain of UniProt P14784 (P14784 27-240, chain 1 of 2): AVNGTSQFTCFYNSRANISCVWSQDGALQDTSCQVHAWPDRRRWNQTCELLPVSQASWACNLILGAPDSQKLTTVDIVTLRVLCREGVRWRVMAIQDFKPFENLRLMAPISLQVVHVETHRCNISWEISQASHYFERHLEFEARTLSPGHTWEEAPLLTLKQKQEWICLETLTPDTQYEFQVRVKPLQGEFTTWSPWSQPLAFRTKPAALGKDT
Chain of UniProt P14784 (P31785 23-262, chain 2 of 2, further chain): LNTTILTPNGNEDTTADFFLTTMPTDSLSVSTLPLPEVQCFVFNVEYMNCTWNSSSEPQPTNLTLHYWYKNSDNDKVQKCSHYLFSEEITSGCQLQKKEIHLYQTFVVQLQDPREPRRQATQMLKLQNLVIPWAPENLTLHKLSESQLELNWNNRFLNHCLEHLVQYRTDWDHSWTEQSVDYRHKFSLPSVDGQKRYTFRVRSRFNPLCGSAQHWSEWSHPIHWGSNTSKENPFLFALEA

For IL-15 (from UniProt P40933), the Kd is listed as 4 nM.
